# From publication PMC7039123
# B1: murine CCL3 (ligand)
# chain: APYGADTPTACCFSYSRKIPRQFIVDYFETSSLCSQPGVIFLTKRNRQICADSKETWVQEYITDLELNA
# Experiments:
# [1] = target: R17^GAG2 (333KGRRK337 to 333DGEED337) (rodent herpesvirus Peru (RHVP)); assay: SPR
# [2] = target: R17 266NAGAQ270 mutant (rodent herpesvirus Peru (RHVP)); assay: SPR
molecule,measurement,setting,value
murine CCL2^K47N (from UniProt P10148 24-148) (ligand),t1/2,[1],5.5 s
murine CCL2^L46RK47N (from UniProt P10148 24-148) (ligand),t1/2,[1],> 900 s
murine CCL2^L46R (from UniProt P10148 24-148) (ligand),fold longer half life than wild type CCL2,[1],2 fold
B1,fold faster kinetic off-rate than with wild type R17,[2],> 100 fold
same,t1/2,[2],11 s
